Reference: PMC11838356 (bioRxiv, 2025)

Target: the molecule itself
Experiment: cryo-EM structure

B1: ArnC from Salmonella enterica (ArnCSe) (enzyme, UniProt O52324 1-327, looked up)
chain: MFDAAPIKKVSVVIPVYNEQESLPELIRRTTTACESLGKAWEILLIDDGSSDSSAELMVKASQEADSHIISILLNRNYGQHAAIMAGFSHVSGDLIITLDADLQNPPEEIPRLVAKADEGFDVVGTVRQNRQDSLFRKSASKIINLLIQRTTGKAMGDYGCMLRAYRRPIIDTMLRCHERSTFIPILANIFARRATEIPVHHAEREFGDSKYSFMRLINLMYDLVTCLTTTPLRLLSLLGSVIAIGGFSLSVLLIVLRLALGPQWAAEGVFMLFAVLFTFIGAQFIGMGLLGEYIGRIYNDVRARPRYFVQQVIYPESTPFTEESHQ
- stoichiometry N: 4
